Results on 66 molecules are retold here after patent publication US20190040115A1 (IMMATICS BIOTECHNOLOGIES, published 2019).

In this test the target is T1, HLA-A*02:01 (human).
T1 construct: captured on streptavidin plates; also called peptide-receptive MHC molecules
The experiment in a line: UV peptide exchange ELISA (anti-b2m); yield grade: + >10%, ++ >20%, +++ >50, ++++ >75%. The procedure, abridged:
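ELISA (anti-β2m, HRP/TMB, 450 nm) of UV-exchanged HLA-A*02:01 complexes measured exchange yield relative to HLA-A*02:01/MLA-001 standards.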
For orientation: In an ELISA, binding on a coated surface is turned into a signal by an enzyme label.

As for GLLDVMYQV, the peptide exchange yield was greater than 75%.

As for NLDKLYHGL, the peptide exchange yield fell in the range of 10 to 20%. As for SLGPIMLTKI, the figure is 20 to 50%. As for ELDKIYETL, the peptide exchange yield was in the range of 10 to 20%. As for ALFAAGANV, the figure is 50 to 75%; as for ALKDLVNLI, greater than 75%; as for ALDSDPVGL, 50 to 75%. As for LIDEAAQML, the figure is 50 to 75%; as for LLDDPTNAHFI, 50 to 75%; as for IIDPPLHGQLL, 20 to 50%. As for TTLGGFAKV, the figure is 20 to 50%. For the molecule IIDDKPIGL, the peptide exchange yield lay within 50 to 75%. As for NLDYAILKL, the figure is 10 to 20%; as for SIDDVVKKL, 20 to 50%; as for GTIPLIESL, 10 to 20%. As for KLGFGTGVNVYL, the figure is greater than 75%; as for ILGDWSIQV, greater than 75%; as for LLDTTQKYL, greater than 75%. As for GILSFLPVL, the figure is 50 to 75%; as for FLYTYIAKV, 50 to 75%; as for TLKEYLESL, 50 to 75%.

As to ILDELVKSL, the peptide exchange yield was in the range of 50 to 75%. As for ILPEAQDYFL, the figure is greater than 75%; as for GLDKVITVL, 50 to 75%; as for FLAEAARSL, greater than 75%. As for FVYGEPREL, the peptide exchange yield fell in the range of 50 to 75%.

Consider KTWDQVPFSV, for which the peptide exchange yield is greater than 75%. As for SLDEVAVSL, the figure is greater than 75%. As for ILDEGHILQL, the figure is greater than 75%. Turning to VLFPMDLAL, the peptide exchange yield lay within 50 to 75%. On to SVNGFISTL, for which the peptide exchange yield lay within 20 to 50%.

For the molecule ILDEEKFNV, the peptide exchange yield lay within 50 to 75%. Consider AVDNILLKL, for which the peptide exchange yield fell in the range of 50 to 75%. As for VMFEYGMRL, the figure is greater than 75%. As for ALPPPPASI, the figure is 50 to 75%; as for VLFKDPVSV, greater than 75%. As for HLDQIFQNL, the peptide exchange yield was in the range of 20 to 50%. Consider NLQEKVPEL, for which the peptide exchange yield lay within 50 to 75%. On to ILDNSPAFL, for which the peptide exchange yield fell in the range of 50 to 75%. SIDDSDPIV: the peptide exchange yield lay in the range of 10 to 20%.

TLLEVDAIVNA: the peptide exchange yield was greater than 75%. As for LLDSGAFHL, the figure is 50 to 75%. Regarding KLSVHVTAL, the peptide exchange yield is greater than 75%. As for ILDGIIREL, the figure is 50 to 75%.

For the molecule VLKADVVLL, the peptide exchange yield lay in the range of 20 to 50%.

With VMSSTLYTV, the peptide exchange yield is greater than 75%.

FADELSHLL: the peptide exchange yield was in the range of 50 to 75%. As for GLDTILQNL, the figure is greater than 75%. As for HTLPHEIVVNL, the peptide exchange yield lay within 50 to 75%. As to SIPDTIASV, the peptide exchange yield fell in the range of 50 to 75%. As for ALLSQDFEL, the figure is greater than 75%.

Take FLPRKFPSL: the peptide exchange yield was greater than 75%. On to GIDDLHISL, for which the peptide exchange yield lay in the range of 50 to 75%. Regarding FLDDGNQML, the peptide exchange yield lay in the range of 50 to 75%. For the molecule LLPDPLYSL, the peptide exchange yield was in the range of 20 to 50%. As to HLIGWTAFL, the peptide exchange yield was greater than 75%. As for IIDDVMKEL, the figure is 20 to 50%. For FMYAGQLTL, the peptide exchange yield was greater than 75%. QIDSIHLLL: the peptide exchange yield was 50 to 75%. For GLDIITNKV, the peptide exchange yield was in the range of 50 to 75%. As for SLYSYFQKV, the figure is greater than 75%; as for YVDSEGIVRM, 10 to 20%. Take YLINFEIRSL: the peptide exchange yield was greater than 75%.

For the molecule LLSNTVSTL, the peptide exchange yield was 50 to 75%. As for LIDKIIEYL, the figure is 20 to 50%; as for SIIPYLLEA, greater than 75%.
